US20230265151A1, “GIP/GLP1 CO-AGONIST COMPOUNDS” (priority 2020, published 2023)
*1 amine or outer side, *2 acyl side, *3 side chain or, on linkers, in order; H or OH if unused. Where no end group is shown, it is not given here. Side-chain parts run from the residue outwards. [ ]: non-standard residue; d: D form. The star is where a group is joined. αMePhe(2-F) = C[C@](N)(Cc1ccccc1F)C(=O)O; γGlu = O=C(O)[C@H](CCC(=O)[*:2])N[*:1]; αMeY = C[C@](N)(Cc1ccc(O)cc1)C(=O)O; 4Pal = N[C@@H](Cc1ccncc1)C(=O)O; αMeL = CC(C)C[C@](C)(N)C(=O)O; Lauroyl = CCCCCCCCCCCC(=O)*; Orn = NCCC[C@H](N)C(=O)O; AEEA = NCCOCCOCC(=O)O; Aib = CC(C)(N)C(=O)O

T1: human GIP receptor (human, UniProt P48546 22-466)
T1 construct: whole, on cells; also called hGIPR; human glucose-dependent insulinotropic polypeptide receptor
T1 sequence (looked up): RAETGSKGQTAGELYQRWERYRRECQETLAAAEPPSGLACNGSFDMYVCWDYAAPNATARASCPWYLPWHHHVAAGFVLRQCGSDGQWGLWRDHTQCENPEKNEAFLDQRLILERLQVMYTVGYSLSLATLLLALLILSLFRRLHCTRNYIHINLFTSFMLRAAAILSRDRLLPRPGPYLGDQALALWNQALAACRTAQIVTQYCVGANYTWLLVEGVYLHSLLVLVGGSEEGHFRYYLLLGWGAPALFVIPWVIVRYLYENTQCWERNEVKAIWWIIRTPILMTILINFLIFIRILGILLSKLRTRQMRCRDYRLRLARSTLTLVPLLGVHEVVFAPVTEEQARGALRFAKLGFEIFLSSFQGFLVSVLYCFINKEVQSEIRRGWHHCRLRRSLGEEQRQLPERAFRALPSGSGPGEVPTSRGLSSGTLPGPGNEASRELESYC


Experiments:
human GIP receptor = target: T1, human GIP receptor; assay: SPA competition vs [125I]-GIP, hGIPR membranes
human GLP-1 receptor = target: T2, human GLP-1 receptor (human, UniProt P43220 24-463); assay: SPA competition vs [125I]-GLP-1, hGLP-1R membranes
T2 construct: whole, on cells; also called hGLP-1R; human glucagon-like peptide-1 receptor
Summary of the method: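 Kᵢ values are geometric means (SEM) over replicates run on separate days, derived from IC₅₀ of four-parameter curve fits. Buffer: HEPES 25 mM pH 7.4 with CaCl₂ 2.5 mM, MgCl₂ 1 mM, bacitracin 0.1%, TWEEN-20 0.003%, EDTA-free protease inhibitors.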

human glucagon receptor = target: T3, human glucagon receptor (human, UniProt P47871 26-477); assay: SPA competition vs [125I]-Gcg, hGcgR membranes
T3 construct: whole, on cells; also called hGCGR; hGcgR
T3 sequence (P47871 26-477): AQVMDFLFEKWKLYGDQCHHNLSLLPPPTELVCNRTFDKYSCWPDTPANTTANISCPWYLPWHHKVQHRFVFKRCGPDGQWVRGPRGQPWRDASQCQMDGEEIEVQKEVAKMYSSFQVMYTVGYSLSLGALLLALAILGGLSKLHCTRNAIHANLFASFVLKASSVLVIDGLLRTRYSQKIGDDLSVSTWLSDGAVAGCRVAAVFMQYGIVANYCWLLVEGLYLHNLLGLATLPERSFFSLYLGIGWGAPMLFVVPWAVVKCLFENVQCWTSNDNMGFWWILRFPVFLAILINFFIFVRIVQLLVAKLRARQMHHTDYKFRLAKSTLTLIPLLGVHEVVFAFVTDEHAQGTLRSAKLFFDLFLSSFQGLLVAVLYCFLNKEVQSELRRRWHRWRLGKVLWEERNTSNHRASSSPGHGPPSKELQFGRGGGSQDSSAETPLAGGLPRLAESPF

Binder	Ki (human GIP receptor)	Ki (human GLP-1 receptor)	Ki (human glucagon receptor)
YXEGTXTSDXXIXLDXKAQXEFIXXLIKGGPSSGAPPPS (Aib2, αMeF(2F)6, 4Pal10, Aib11, αMeL13, Orn16, K17(Z1), Aib20, D-Glu24 (printed e), αMeY25, K28(Z1), C-term NH2; Z1=AEEA-(γ-Glu)-(10-(4-carboxyphenoxy)decanoyl))	57.8 pM	1220 pM	238000 pM
YXEGTXTSDXXIXLDXQAQXXFIKXLIKGGPSSGAPPPS (Aib2, αMeF(2F)6, 4Pal10, Aib11, αMeL13, Orn16, Aib20, Orn21, K24(Z1), αMeY25, K28(Z1), C-term NH2; Z1=AEEA2-(γ-Glu)-(11-(4-carboxyphenoxy)undecanoyl))	50.7 pM	164 pM	130000 pM
YXEGTXTSDKXIXLDXKAQXXFIXXLIEGGPSSGAPPPS (Aib2, αMeF(2F)6, K10(Z1), Aib11, αMeL13, Orn16, K17(Z1), Aib20, Orn21, D-Glu24, αMeY25, C-term NH2; Z1=AEEA2-(γ-Glu)-CO-(CH2)10-CH3)	21.4 pM	167 pM	58400 pM
YXEGTXTSDXXIXLDXQAQXXFIKXLIKGGPSSGAPPPS (Aib2, αMeF(2F)6, 4Pal10, Aib11, αMeL13, Orn16, Aib20, Orn21, K24(Z1), αMeY25, K28(Z1), C-term NH2; Z1=AEEA2-(γ-Glu)-(10-(4-carboxyphenoxy)decanoyl))	31.2 pM	373 pM	131000 pM
YXEGTXTSDKXIXLDXKAQXEXIXXLIEGGPSSGAPPPS (Aib2, αMeF(2F)6, K10(Z1), Aib11, αMeL13, Orn16, K17(Z1), Aib20, αMeF22, D-Glu24, αMeY25, C-term NH2; Z1=AEEA3-(γ-Glu)-CO-(CH2)10-CH3)	37.2 pM	412 pM	64900 pM
YXEGTXTSDXSIXLDXKAQXEFIXXLIEGGKSSGAPPPS (Aib2, αMeF(2F)6, 4Pal10, αMeL13, Orn16, K17(Z1), Aib20, D-Glu24, αMeY25, K31(Z1), C-term NH2; Z1=AEEA2-(γ-Glu)-CO-(CH2)14-CH3)	50.1 pM	362 pM	1460 pM
YXEGTXTSDXXIXLDXKAQXEFIXXLIKGGPSSGAPPPS (Aib2, αMeF(2F)6, 4Pal10, Aib11, αMeL13, Orn16, K17(Z1), Aib20, D-Glu24, αMeY25, K28(Z1), C-term NH2; Z1=AEEA3-(γ-Glu)-CO-(CH2)10-CH3)	20.7 pM	275 pM	85900 pM
YXEGTXTSDXXIXLDXKAQXXFIXXLIKGGPSSGAPPPS (Aib2, αMeF(2F)6, 4Pal10, Aib11, αMeL13, Orn16, K17(Z1), Aib20, Orn21, D-Glu24, αMeY25, K28(Z1), C-term NH2; Z1=AEEA2-(γ-Glu)-CO-(CH2)10-CH3)	22.9 pM	194 pM	33700 pM
YXEGTXTSDXXIXLDXKAQXKFIXXLIXGGPSSGAPPPS (Aib2, αMeF(2F)6, 4Pal10, Aib11, αMeL13, Orn16, K17(Z1), Aib20, K21(Z1), D-Glu24, αMeY25, Orn28, C-term NH2; Z1=AEEA3-(γ-Glu)-CO-(CH2)10-CH3)	17.5 pM	187 pM	28300 pM
YXEGTXTSDKXIXLDXKAQXXFIXXLIEGGPSSGAPPPS (Aib2, αMeF(2F)6, K10(Z1), Aib11, αMeL13, Orn16, K17(Z1), Aib20, Orn21, D-Glu24, αMeY25, C-term NH2; Z1=AEEA3-(γ-Glu)-CO-(CH2)10-CH3)	13.4 pM	134 pM	356000 pM
YXEGTXTSDXXIXLDXQAQXXFIKXLIKGGPSSGAPPPS (Aib2, αMeF(2F)6, 4Pal10, Aib11, αMeL13, Orn16, Aib20, Orn21, K24(Z1), αMeY25, K28(Z1), C-term NH2; Z1=AEEA2-(γ-Glu)-CO-(CH2)12-CO2H)	27.9 pM	346 pM	289000 pM
YXEGTXTSDXXIXLDXKAQXXFIXXLIKGGPSSGAPPPS (Aib2, αMeF(2F)6, 4Pal10, Aib11, αMeL13, Orn16, K17(Z1), Aib20, Orn21, D-Glu24, αMeY25, K28(Z1), C-term NH2; Z1=AEEA3-(γ-Glu)-CO-(CH2)10-CH3)	9.65 pM	150 pM	81200 pM
YXEGTXTSDXXGXLDXQAQXXFIKXLIKGGPSSGAPPPS (Aib2, αMeF(2F)6, 4Pal10, Aib11, αMeL13, Orn16, Aib20, Orn21, K24(Z1), αMeY25, K28(Z1), C-term NH2; Z1=AEEA2-(γ-Glu)-CO-(CH2)12-CO2H, G at position 12)	53.9 pM	386 pM	592000 pM
YXEGTXTSDXXIXLDXKAQXEFIXXLIEGGPSSGAPPPSK (Aib2, αMeF(2F)6, 4Pal10, Aib11, αMeL13, Orn16, K17(Z1), Aib20, D-Glu24, αMeY25, K40(Z1), C-term NH2; Z1=AEEA-(γ-Glu)-(10-(4-carboxyphenoxy)decanoyl))	53 pM	765 pM	360000 pM
YXEGTXTSDXXIXLDXKAQXXFIXXLIEGGPSSGAPPPSK (Aib2, αMeF(2F)6, 4Pal10, Aib11, αMeL13, Orn16, K17(Z1), Aib20, Orn21, D-Glu24, αMeY25, K40(Z1), C-term NH2; Z1=AEEA3-(γ-Glu)-CO-(CH2)10-CH3) [Y-Aib-EGT-αMeF(2F)-TSD-4Pal-Aib-I-αMeL-LD-Orn-K((2-[2-(2-Amino-ethoxy)-ethoxy]-acetyl)3-(γ …]	9.1 pM	122 pM	14400 pM
YXEGTXTSDXXIXLDXKAQXXFIXXLIEGGPSSGAPPPSK (Aib2, αMeF(2F)6, 4Pal10, Aib11, αMeL13, Orn16, K17(Z1), Aib20, Orn21, D-Glu24, αMeY25, K40(Z1), C-term NH2; Z1=AEEA2-(γ-Glu)-CO-(CH2)10-CH3)	17.4 pM	68.4 pM	3590 pM
YXEGTXTSDXXIXLDXKAQXEFIXXLIEGGPSSGAPPPSK (Aib2, αMeF(2F)6, 4Pal10, Aib11, αMeL13, Orn16, K17(Z1), Aib20, D-Glu24, αMeY25, K40(Z1), C-term NH2; Z1=AEEA3-(γ-Glu)-CO-(CH2)10-CH3)	20.6 pM	219 pM	16000 pM
Y[Aib]EGT[αMePhe(2-F)]TSDK([AEEA-AEEA-γGlu-Lauroyl])[Aib]I[αMeL]LD[Orn]K([AEEA-AEEA-γGlu-Lauroyl])AQ[Aib][4Pal]FI[dE][αMeY]LIEGGPSSGAPPPS-NH2	15.2 pM	156 pM	51800 pM
